This assay deals with T1, human CD39 on the cell surface (human, UniProt P49961 1-510).
T1 construct: whole, on cells; This one entry covers every cell-surface human CD39 assay, on transfected and on endogenous cells; also called 239T-hCD39; Jurkat-hCD39
T1 sequence (looked up): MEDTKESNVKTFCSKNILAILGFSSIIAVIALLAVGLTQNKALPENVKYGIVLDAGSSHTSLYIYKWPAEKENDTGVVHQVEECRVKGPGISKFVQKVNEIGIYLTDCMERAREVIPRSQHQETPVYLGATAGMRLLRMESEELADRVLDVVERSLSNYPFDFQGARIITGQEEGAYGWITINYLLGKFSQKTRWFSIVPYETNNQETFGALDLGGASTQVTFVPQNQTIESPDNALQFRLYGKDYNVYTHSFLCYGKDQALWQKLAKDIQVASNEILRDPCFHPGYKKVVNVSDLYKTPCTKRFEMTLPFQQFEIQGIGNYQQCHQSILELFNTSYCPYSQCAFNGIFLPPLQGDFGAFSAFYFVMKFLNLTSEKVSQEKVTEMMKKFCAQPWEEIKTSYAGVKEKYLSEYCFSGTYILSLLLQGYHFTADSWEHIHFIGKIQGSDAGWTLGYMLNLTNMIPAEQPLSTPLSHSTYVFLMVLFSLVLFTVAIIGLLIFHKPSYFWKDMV
In words: flow cytometry on human CD39-overexpressing HEK293T or Jurkat cells.

B1: P4_h1lala (antibody, V domains shown)
VH: QVQLKESGPSLVQPSQSLSITCTVSGFSLTNYGVHWVRQSPGKGLEWLGVILRRGSTDYNAAFMSRLSITKDNSKSQVFFKMNSLQADDTAIYYCAKTAVVAGDYFDYWGQGTTLTVSS
VL: DIVMTQSHKFMSTSVGDRVSVTCKASQNVGTNVAWYQQKPGQSPKALIYSASYRYSGVPDRFTGSGSGTDFTLTISNVQSEDLAEYFCQQYNSYPLTFGTGTKLEIKR
notes: Chimeric antibody
Consider B1, for which the binding result is on record as “binds”.

Values taken from patent US20250215105A1 (BRIGHTPATH BIOTHERAPEUTICS, published 2025).
